According to publication PMC11092868, “Mapping Novel Frataxin Mitochondrial Networks Through Protein- Protein Interactions” (Research Square, 2024):

Target: the molecule itself
Test: non-reducing SDS-PAGE and immunoblot after NEM alkylation; lysis in alkylation buffer with 100 mM N-ethylmaleimide and 10 ug/mL catalase; oxidized dimers against reduced monomers; with or without beta-mercaptoethanol in Laemmli buffer

B1: Peroxiredoxin 3, endogenous human (natural protein, UniProt P30048 62-256, looked up)
chain: APAVTQHAPYFKGTAVVNGEFKDLSLDDFKGKYLVLFFYPLDFTFVCPTEIVAFSDKANEFHDVNCEVVAVSVDSHFSHLAWINTPRKNGGLGHMNIALLSDLTKQISRDYGVLLEGSGLALRGLFIIDPNGVIKHLSVNDLPVGRSVEETLRLVKAFQYVETHGEVCPANWTPDSPTIKPSPAASKEYFQKVNQ
notes: Peroxiredoxin 3, mitochondrial, human; also called Prdx3; PRDX3; source: endogenous: A549 cells (BioID); human lymphoblast lysate fractions (co-IP); human dermal fibroblast lysate (redox blot)
- stoichiometry N: 2

B2: Peroxiredoxin 3, endogenous mouse (natural protein, UniProt P20108 63-257, looked up)
chain: TPAVTQHAPYFKGTAVVNGEFKELSLDDFKGKYLVLFFYPLDFTFVCPTEIVAFSDKANEFHDVNCEVVAVSVDSHFSHLAWINTPRKNGGLGHMNITLLSDITKQISRDYGVLLESAGIALRGLFIIDPNGVVKHLSVNDLPVGRSVEETLRLVKAFQFVETHGEVCPANWTPESPTIKPSPTASKEYFEKVHQ
notes: Peroxiredoxin 3, mitochondrial, mouse; also called Prdx3; source: endogenous, mouse cerebellum and heart lysates
- stoichiometry N: 2
